Patent US20180162928A1 (Janssen / Centocor, published 2018)

What was measured:
Assay in all cases: ELISA, lysate on plate-bound antigen
[1] = target: human serum albumin (human) (UniProt P02768)
[2] = target: unrelated Fc-fused recombinant protein
[3] = target: T1, recombinant biotinylated PD-L1 (rhPD-L1/Fc Chimera, R&D Systems 156-B7) (human, UniProt Q9NZQ7 19-238, biotinylated (sites not given))
T1 construct: Bought Fc chimera; also called human PD-L1
Outline: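 On streptavidin plates coated with biotinylated PD-L1 (unrelated Fc-fusion protein and HSA as negative controls), diluted lysate was applied for 1 h. Bound FN3 domains detected with HRP-conjugated anti-FN3 antibody and POD substrate.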

T1 sequence (Q9NZQ7 19-238, change not shown): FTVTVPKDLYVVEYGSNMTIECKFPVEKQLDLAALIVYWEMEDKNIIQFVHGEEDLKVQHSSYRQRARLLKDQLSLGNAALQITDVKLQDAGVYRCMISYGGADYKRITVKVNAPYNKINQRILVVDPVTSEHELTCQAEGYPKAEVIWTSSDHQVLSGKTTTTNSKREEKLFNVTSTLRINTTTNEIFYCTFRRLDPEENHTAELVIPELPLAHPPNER
Chain of human serum albumin (human) (P02768 25-609 limits assumed): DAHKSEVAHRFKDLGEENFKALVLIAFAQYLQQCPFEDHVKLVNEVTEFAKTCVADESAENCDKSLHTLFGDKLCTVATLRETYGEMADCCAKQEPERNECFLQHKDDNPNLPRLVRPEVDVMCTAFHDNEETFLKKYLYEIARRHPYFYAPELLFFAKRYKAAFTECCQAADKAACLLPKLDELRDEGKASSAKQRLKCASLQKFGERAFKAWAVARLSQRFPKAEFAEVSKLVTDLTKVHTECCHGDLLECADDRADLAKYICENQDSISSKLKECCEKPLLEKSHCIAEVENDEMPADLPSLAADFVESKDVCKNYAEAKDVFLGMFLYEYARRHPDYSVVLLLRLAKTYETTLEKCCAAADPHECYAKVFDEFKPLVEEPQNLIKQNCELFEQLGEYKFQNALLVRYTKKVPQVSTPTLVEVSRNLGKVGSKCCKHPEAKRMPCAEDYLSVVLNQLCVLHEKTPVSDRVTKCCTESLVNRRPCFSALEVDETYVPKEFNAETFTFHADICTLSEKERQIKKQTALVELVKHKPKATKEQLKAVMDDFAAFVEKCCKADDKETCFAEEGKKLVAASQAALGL

Row | ELISA HSA (RSU) [1] | ELISA Fc Control (RSU) [2] | ELISA PD-L1 Fc (RSU) [3] | Binder
1 | 640 RSU | 640 RSU | 32100 RSU | ISOP121GR5P1F6 (designed binder, not shown: small tags and cut ends, FN3 domain; E. coli lysate in the ELISA) LPAPKNLVVSRVTEDSARLSWTAPDAAFDSFDIRYHEYTWPGEAIVLLVPGSERSYDLTGLKPGTEYGVYINGVKGGFRSKPLFAWFTTGG
2 | 6560 RSU | 4240 RSU | 327000 RSU | ISOP121AR5P1E7 (designed binder, not shown: small tags and cut ends, FN3 domain; E. coli lysate in the ELISA) LPAPKNLVVSRVTEDSARLSWHVYHEIDYFDSFLIQYQESEKVGEAIVLTVPGSERSYDLTGLKPGTEYTVSIYGVYQRKVEFYSNPLSAIFTT
3 | 1120 RSU | 960 RSU | 171000 RSU | ISOP121AR5P1H5 (designed binder, not shown: small tags and cut ends, FN3 domain; E. coli lysate in the ELISA) LPAPKNLVVSRVTEDSARLSWEDAVKHIWFDSFLIQYQESEKVGEAIVLTVPGSERSYDLTGLKPGTEYTVSIYGVWIASVWRSNPLSAIFTT
4 | 880 RSU | 720 RSU | 12900 RSU | ISOP121BR5P1F7 (designed binder, not shown: small tags and cut ends, FN3 domain; E. coli lysate in the ELISA) LPAPKNLVVSRVTEDSARLSWHDATWQYFDSFLIQYQESEKVGEAIVLTVPGSERSYDLTGLKPGTEYTVSIYGVFHRKHIDFVSNPLSAIFTT
5 | 1040 RSU | 720 RSU | 64000 RSU | ISOP121AR5P1F7 (designed binder, not shown: small tags and cut ends, FN3 domain; E. coli lysate in the ELISA) LPAPKNLVVSRVTEDSARLSWQEHWDTSSNFDSFLIQYQESEKVGEAIVLTVPGSERSYDLTGLKPGTEYTISIYGVYNRKVLFYSNPLSAIFTT
6 | 960 RSU | 800 RSU | 180000 RSU | ISOP121AR5P1F3 (designed binder, not shown: small tags and cut ends, FN3 domain; E. coli lysate in the ELISA) LPAPKNLVVSRVTEDSARLSWPFNNYSEHFDSFLIQYQESEKVGEAIVLTVPGSERSYDLTGLKPGTEYTVSIYGVYERKTAFYSNPLSAIFTT
7 | 800 RSU | 960 RSU | 42000 RSU | ISOP121BR5P1E9 (designed binder, not shown: small tags and cut ends, FN3 domain; E. coli lysate in the ELISA) LPAPKNLVVSRVTEDSARLSWDSYRDYFDSFLIQYQESEKVGEAIVLTVPGSERSYDLTGLKPGTEYTVSIYGVYSRKHVVFVQSNPLSAIFTT
8 | 720 RSU | 800 RSU | 137000 RSU | ISOP121BR5P1E2 (designed binder, not shown: small tags and cut ends, FN3 domain; E. coli lysate in the ELISA) LPAPKNLVVSRVTEDSARLSWWFPLEWFDSFLIQYQESEKVGEAIVLTVPGSERSYDLTGLKPGTEYTVSIYGVYTREHKSVWASNPLSAIFTT
9 | 720 RSU | 720 RSU | 11000 RSU | ISOP121BR5P1A6 (designed binder, not shown: small tags and cut ends, FN3 domain; E. coli lysate in the ELISA) LPAPKNLVVSRVTEDSARLSWASWLVAFFDSFLIQYQESEKVGEAIVLTVPGSERSYDLTGLKPGTEYTVSIYGVYQRHASAFVSNPLSAIFTT
10 | 1040 RSU | 1440 RSU | 74600 RSU | ISOP121BR5P1H6 (designed binder, not shown: small tags and cut ends, FN3 domain; E. coli lysate in the ELISA) LPAPKNLVVSRVTEDSARLSWGYIDVSYFDSFLIQYQESEKVGEAIVLTVPGSERSYDLTGLKPGTEYTVSIYGVYSRPKAEFTSNPLSAIFTT
11 | 1280 RSU | 1360 RSU | 232000 RSU | ISOP121AR5P1G10 (designed binder, not shown: small tags and cut ends, FN3 domain; E. coli lysate in the ELISA) LPAPKNLVVSRVTEDSARLSWEWLEHFDSFLIQYQESEKVGEAIVLTVPGSERSYDLTGLKPGTEYTVSIYGVYQRKVEFHSNPLSAIFTTT
12 | 720 RSU | 720 RSU | 61700 RSU | ISOP121GR5P1A2 (designed binder, not shown: small tags and cut ends, FN3 domain; E. coli lysate in the ELISA) LPAPKNLVVSRVTEDSARLSWTAPDAAFDSFKIQYIERYIPGEAIQLNVPGSERSYDLTGLKPGTEYSVIIPGVKGGRNSFPLWAWFTT
